Assay [1] concerns the target ChbG from Klebsiella pneumoniae (chitooligosaccharide deacetylase), wild type (Klebsiella pneumoniae) (UniProt A6T7U7). Description: SEC-MALS; kpChbG 5 mg/mL, Superdex 200 10/300, SEC buffer (20 mM Tris-HCl pH 8.0, 150 mM NaCl), 0.4 mL/min, 25 °C, DAWN-Treos MALS detector. Background: Size exclusion chromatography separates by hydrodynamic size, large species first.
Assay [2] shares this target. Description: SEC; Superdex 200 Increase 10/300 GL (24 mL), 20 mM Tris-HCl pH 8.0, 150 mM NaCl, 0.4 mL/min, 4 °C; wild type elutes at approximately 15 mL, E23K/D224K at approximately 17 mL.
Assay [3] has as its target kpChbG E23K/D224K double-mutant (Klebsiella pneumoniae) (UniProt A6T7U7).

For “ChbG from Klebsiella pneumoniae (chitooligosaccharide deacetylase), wild type (from UniProt A6T7U7 1-252) (enzyme)”, the stoichiometry N in assay [1] and in assay [2] was 2 each time.

On to “kpChbG E23K/D224K double-mutant (from UniProt A6T7U7 1-252) (enzyme)”, for which the deacetylation of N,N’-diacetylchitobiose measured by ESI-MS, dimerization disrupting mutant E23K/D224K against wild type in assay [3] is above 50%.
